# Laboratory results: patent US20240400677A1 (ELECTRA THERAPEUTICS, published 2024)
# Residue numbers refer to the chain shown, from its start.
# T1: cynomolgus monkey SIRPα on CHO cells (cynomolgus monkey, UniProt A0A2K5VYQ9 31-507)
# T1 construct: whole, on cells; also called Cyno SIRPα CHO
# T1 sequence: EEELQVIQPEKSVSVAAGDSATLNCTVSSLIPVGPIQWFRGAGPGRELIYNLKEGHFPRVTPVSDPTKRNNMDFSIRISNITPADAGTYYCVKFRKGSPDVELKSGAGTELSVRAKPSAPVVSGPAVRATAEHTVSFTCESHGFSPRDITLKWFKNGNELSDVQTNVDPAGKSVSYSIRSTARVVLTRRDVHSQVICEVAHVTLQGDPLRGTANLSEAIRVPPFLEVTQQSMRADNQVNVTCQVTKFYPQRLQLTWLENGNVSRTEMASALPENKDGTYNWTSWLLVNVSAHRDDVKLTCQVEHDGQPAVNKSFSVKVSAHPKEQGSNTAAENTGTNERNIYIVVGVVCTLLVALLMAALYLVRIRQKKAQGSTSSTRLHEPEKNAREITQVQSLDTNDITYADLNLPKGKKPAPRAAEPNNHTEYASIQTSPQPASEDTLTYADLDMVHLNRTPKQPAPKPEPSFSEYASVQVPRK
# T2: cynomolgus monkey SIRPγ on CHO cells (cynomolgus monkey, UniProt Q9P1W8 29-386 (human entry))
# T2 construct: also called Cyno SIRPγ CHO
# T2 chain: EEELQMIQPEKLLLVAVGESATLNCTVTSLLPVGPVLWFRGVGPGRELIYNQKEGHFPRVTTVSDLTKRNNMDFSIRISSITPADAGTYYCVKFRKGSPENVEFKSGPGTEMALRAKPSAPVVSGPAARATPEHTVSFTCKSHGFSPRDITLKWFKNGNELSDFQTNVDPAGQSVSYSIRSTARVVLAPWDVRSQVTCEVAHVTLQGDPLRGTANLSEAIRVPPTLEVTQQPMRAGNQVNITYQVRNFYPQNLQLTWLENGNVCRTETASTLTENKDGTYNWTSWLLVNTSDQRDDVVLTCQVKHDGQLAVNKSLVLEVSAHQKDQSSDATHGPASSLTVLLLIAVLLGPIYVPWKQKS
# B1: Antibody 35 (scFv, V domains shown)
# VH: QVQLVQSGAEVKKPGASVKVSCKASGYTFTSYYIHWVRQAPGQGLEWMGTINPSGGSTSYAQKFQGRVTMTRDTSTSTVYMELSSLRSEDTAVYYCARETSRWLRDYYYGMDVWGQGTTVTVSS
# VL: DIVMTQSPLSLPVTPGEPASISCRSSQSLLHSNGYNYLDWYLQKPGQSPQLLIYDASSLESGVPDRFSGSGSGTDFTLKISRVEAEDVGVYYCMQGTHWPLTFGGGTKVEIK
# notes: scFv in crude PPE, V5/myc-tagged
# B2: Antibody 20 (scFv, V domains shown)
# VH: QVQLVQSGAEVKKPGASVKVSCKASGYTFTSYDINWVRQAPGQGLEWMGWMNPNSGNTGYAQKFQGRVTMTRDTSTSTVYMELSSLRSEDTAVYYCARESYAYCSSTSCYDAFDIWGQGTMVTVSS
# VL: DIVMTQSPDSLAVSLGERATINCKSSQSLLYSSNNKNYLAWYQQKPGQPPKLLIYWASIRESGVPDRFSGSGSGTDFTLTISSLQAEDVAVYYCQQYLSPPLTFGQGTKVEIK
# notes: as for B1
# B3: Antibody 9 (scFv, V domains shown)
# VH: QVQLVQSGAEVKKPGASVKVSCKASGYSFSDYYMHWVRQAPGQGLEWMGWMSPNSGNTGYAQKFQGRVTMTRDTSTSTVYMELSSLRSEDTAVYYCARQREEYGHYYYGMDVWGQGTMVTVSS
# VL: EIVMTQSPATLSVSPGERATLSCRASQSLGSTYLAWYQQKPGQAPRLLIYGASTRATGIPARFSGSGSGTEFTLTISSLQSEDFAVYYCQQYYSSPPTFGQGTKVEIK
# notes: as for B1
# B4: Antibody 29 (scFv, V domains shown)
# VH: QVQLVQSGAEVKKPGASVKVSCKASGGTFSSYAISWVRQAPGQGLEWMGIINPSSSSTGYAQKFQGRVTMTRDTSTSTVYMELSSLRSEDTAVYYCARAGYYDSSGYYYSPYYGMDVWGQGTTVTVSS
# VL: B3 VL with L29I, G30S, S31G, T32S, Y93G, S95F, P97F, Q101P, E106D
# notes: as for B1
# B5: Antibody 34 (scFv, V domains shown)
# VH: QVQLVQSGAEVKKPGASVKVSCKASGYTFSNYYMHWVRQAPGQGLEWMGWMNPNSGNTGYAQKFQGRVTMTRDTSTSTVYMELSSLRSEDTAVYYCARASMYSSSGFDYWGQGTLVTVSS
# VL: DIVMTQSPLSLPVTPGEPASISCRSSQSLLHSNGYNYLDWYLQKPGQSPQLLIYLASTRAPGVPDRFSGSGSGTDFTLKISRVEAEDVGVYYCMQGSHWPPSFGQGTRLEIK
# notes: as for B1
# B6: Antibody 16 (scFv, V domains shown)
# VH: QVQLVQSGAEVKKPGASVKVSCKASGYTFTSYYMHWVRQAPGQGLEWMGWINPNSGNAGFAQKFQGRVTMTRDTSTSTVYMELSSLRSEDTAVYYCARGPVYSYGPFDYWGQGTLVTVSS
# VL: DIQMTQSPSSLSASVGDRVTITCRASQGISTYLAWYQQKPGKAPKLLIYAASTLQSGVPSRFSGSGSGTDFTLTISSLQPEDFATYYCQQSHSAPITFGQGTKVEIK
# notes: as for B1
# B7: Antibody 33 (scFv, V domains shown)
# VH: QVQLVQSGAEVKKPGASVKVSCKASGYTFTSYYMHWVRQAPGQGLEWMGWMNPNSDNTGYAQKFQGRVTMTRDTSTSTVYMELSSLRSEDTAVYYCARVGVGYGYYYYGMDVWGQGTTVTVSS
# VL: B6 VL with S26G, G28S, S30G, T31D, A34N, T53S, H92Y, A94T, I96W
# notes: as for B1
# B8: Antibody 21 (scFv, V domains shown)
# VH: EVQLLESGGGLVQPGGSLRLSCAASGFTLGSYWMHWVRQAPGKGLEWVSLISWDGGSTYYADSVKGRFTISRDNSKNTLYLQMNSLRAEDTAVYYCAKGPWVGYSGYDLNYYYYGMDVWGQGTTVTVSS
# VL: DIQMTQSPSSLSASVGDRVTITCRASQDIRRALAWYQQKPGKAPKLLIYAASSLQSGVPSRFSGSGSGTDFTLTISSLQPEDFATYYCLQHNSYPPTFGQGTKLEIK
# notes: as for B1
# B9: Antibody 27 (scFv, V domains shown)
# VH: QVQLVQSGAEVKKPGASVKVSCKASGYTFTSHDINWVRQAPGQGLEWMGWMNANNGNAGYAQKFQGRVTMTRDTSTSTVYMELSSLRSEDTAVYYCAKDLSPSSSWSTYYYYYGMDVWGQGTMVTVSS
# VL: B6 VL with G28S, T31N, Y32L, T53S, H92Y, A94T, I96Y, V104L
# notes: as for B1
# B10: Antibody 24 (scFv, V domains shown)
# VH: QVQLVQSGAEVKKPGASVKVSCKASGYTFTGYYMHWVRQAPGQGLEWMGIINPSGGSTNYAQKFQGRVTMTRDTSTSTVYMELSSLRSEDTAVYYCARGPIGYGMDVWGQGTLVTVSS
# VL: B8 VL with D28G, R30G, R31N, A32D, A34G, S53N, Q55E, S56T, N92H, P96F
# notes: as for B1
# B11: Antibody 32 (scFv, V domains shown)
# VH: QVQLVQSGAEVKKPGASVKVSCKASGYTFTSYYMYWVRQAPGQGLEWMGWINPNSGNTGYAQKFQGRVTMTRDTSTSTVYMELSSLRSEDTAVYYCAKDRRRGVGLAAAGTSAFDIWGQGTMVTVSS
# VL: B6 VL with G28S, T31N, Y32W, T53S, H92Y, A94T, I96Y, V104L
# notes: as for B1
# B12: Antibody 14 (scFv, V domains shown)
# VH: QVQLVQSGAEVKKPGASVKVSCKASGYTFTSYYMHWVRQAPGQGLEWMGWVDPNNGDTGYAQKFQGRVTMTRDTSTSTVYMELSSLRSEDTAVYYCARDNWGSLDVWGKGTTVTVSS
# VL: B5 VL with L55A, R59L, A60Q, P61S, S97L, H98Q, W99T, P100L, P101Y, R108K
# notes: as for B1
# Biological target: T1, cynomolgus monkey SIRPα on CHO cells
# Assay: flow cytometry
row,Binder,binding result
1,B1,no binding (tested: fold change <2.0)
2,B2,no binding (tested: fold change <2.0)
3,B3,no binding (tested: fold change <2.0)
4,B4,no binding (tested: fold change <2.0)
5,B5,no binding (tested: fold change <2.0)
6,B6,no binding (tested: fold change <2.0)
7,B7,no binding (tested: fold change <2.0)
8,B8,no binding (tested: fold change <2.0)
9,B9,no binding (tested: fold change <2.0)
10,B10,no binding (tested: fold change <2.0)
11,B11,no binding (tested: fold change <2.0)

# Biological target: T3, human SIRPβ1 on CHO cells (co-transfected with DAP12) (human, UniProt O00241 30-398)
# T3 construct: whole, on cells; co-transfected with DAP12; also called Human SIRPβ1 CHO
# T3 sequence (O00241 30-398): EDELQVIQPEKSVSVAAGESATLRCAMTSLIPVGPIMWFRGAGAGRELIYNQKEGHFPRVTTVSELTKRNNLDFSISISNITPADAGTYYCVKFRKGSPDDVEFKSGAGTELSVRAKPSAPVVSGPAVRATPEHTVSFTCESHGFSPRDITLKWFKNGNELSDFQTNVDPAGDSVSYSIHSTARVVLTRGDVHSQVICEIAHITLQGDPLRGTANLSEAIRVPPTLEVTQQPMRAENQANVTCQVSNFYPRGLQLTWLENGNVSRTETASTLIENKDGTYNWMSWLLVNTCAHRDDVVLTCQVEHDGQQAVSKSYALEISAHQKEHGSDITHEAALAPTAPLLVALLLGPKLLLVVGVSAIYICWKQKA
# Assay: flow cytometry
row,Binder,binding result
1,B2,no binding (tested: fold change <2.0)
2,B3,no binding (tested: fold change <2.0)
3,B4,no binding (tested: fold change <2.0)
4,B12,no binding (tested: fold change <2.0)
5,B5,no binding (tested: fold change <2.0)
6,B6,no binding (tested: fold change <2.0)
7,B7,no binding (tested: fold change <2.0)
8,B8,no binding (tested: fold change <2.0)
9,B9,no binding (tested: fold change <2.0)
10,B10,no binding (tested: fold change <2.0)
11,B11,no binding (tested: fold change <2.0)

# Biological target: T2, cynomolgus monkey SIRPγ on CHO cells
# Assay: flow cytometry, myc-scFv PPE
# Protocol: (§1) Selected antibodies were tested for binding to stably transfected human SIRPγ, SIRPαV1, or SIRPβ1 (co-transfected with DAP12) Chinese hamster ovary (CHO) cells via flow cytometry. A titration of select antibodies was added to the cells and detected using a fluorescently labelled secondary anti-rat IgG antibody or anti-human IgG antibody. Graphs depict the median fluorescence intensity (MFI) at each concentration. FIGS. 5A and 5G show the binding curves of select antibodies to human SIRPγ, cynomolgus monkey SIRPγ, human SIRPα, cynomolgus monkey SIRPα, human SIRPβ1, or cynomolgus monkey SIRPβl-expressing CHO cells detected using an anti-rat IgG antibody. FIGS. 5B-5F and 5H-5L show the binding curves of select antibodies to human SIRPγ, cynomolgus monkey SIRPγ, human SIRPα, cynomolgus monkey SIRPα, human SIRPβ1, or cynomolgus monkey SIRPβ1-expressing CHO cells detected using an anti-human IgG antibody. […] For select antibodies, each myc-tagged SIRPγ scFv antibody as crude PPE was incubated with each of the SIRP-expressing cell lines stated above along with the parental CHO-K1 cell line. […] Fold change value <2.0 is considered a non-binder.
row,Binder,MFI fold change over parental CHO
1,B1,12.8 fold
2,B2,10.5 fold
3,B3,6.87 fold
4,B4,13 fold
5,B12,18 fold
6,B5,12 fold
7,B6,16.3 fold
8,B7,8.02 fold
9,B8,96.1 fold
10,B9,5.81 fold
11,B10,9.85 fold
12,B11,9.63 fold

# Biological target: T4, human SIRPγ on stably transfected CHO cells (human, UniProt Q9P1W8 29-387)
# T4 construct: also called Human SIRPγ CHO
# T4 sequence (Q9P1W8 29-387 limits assumed): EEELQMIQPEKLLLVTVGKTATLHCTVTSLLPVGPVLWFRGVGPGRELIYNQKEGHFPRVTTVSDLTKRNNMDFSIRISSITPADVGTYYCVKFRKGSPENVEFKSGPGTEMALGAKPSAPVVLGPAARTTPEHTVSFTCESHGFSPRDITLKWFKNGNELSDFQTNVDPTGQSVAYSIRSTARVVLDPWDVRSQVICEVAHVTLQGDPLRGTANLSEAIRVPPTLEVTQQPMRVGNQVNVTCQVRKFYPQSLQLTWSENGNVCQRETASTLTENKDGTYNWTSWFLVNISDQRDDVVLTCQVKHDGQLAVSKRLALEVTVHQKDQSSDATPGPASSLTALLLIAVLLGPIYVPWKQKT
# Assay: flow cytometry, myc-scFv PPE
# Protocol: as §1
row,Binder,MFI fold change over parental CHO
1,B1,18.3 fold
2,B2,8.87 fold
3,B3,10.4 fold
4,B4,11.4 fold
5,B12,19.6 fold
6,B5,18.7 fold
7,B6,33 fold
8,B7,20 fold
9,B8,51.4 fold
10,B9,23.2 fold
11,B10,11.1 fold
12,B11,10.2 fold

# Biological target: T5, human SIRPγ-His monomer protein (human, UniProt Q9P1W8 29-360)
# T5 construct: also called hSIRPγ
# T5 sequence (Q9P1W8 29-360 limits assumed): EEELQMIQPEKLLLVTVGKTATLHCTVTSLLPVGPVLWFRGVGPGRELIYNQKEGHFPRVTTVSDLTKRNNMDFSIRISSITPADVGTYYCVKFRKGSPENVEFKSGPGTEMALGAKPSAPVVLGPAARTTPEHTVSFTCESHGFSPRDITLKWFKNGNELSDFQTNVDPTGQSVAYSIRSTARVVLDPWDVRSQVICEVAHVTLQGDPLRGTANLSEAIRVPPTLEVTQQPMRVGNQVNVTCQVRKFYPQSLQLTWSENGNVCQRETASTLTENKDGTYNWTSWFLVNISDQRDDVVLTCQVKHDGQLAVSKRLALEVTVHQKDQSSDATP
# Assay: BLI Octet, V5-scFv PPE captured, SIRP-His 500 nM
row,Binder,kdis
1,B1,0.001 to 0.01 s⁻¹
2,B2,< 0.001 s⁻¹
3,B3,0.001 to 0.01 s⁻¹
4,B4,0.001 to 0.01 s⁻¹
5,B12,0.001 to 0.01 s⁻¹
6,B5,0.001 to 0.01 s⁻¹
7,B7,0.001 to 0.01 s⁻¹
8,B8,0.001 to 0.01 s⁻¹
9,B9,0.001 to 0.01 s⁻¹
10,B10,> 0.01 s⁻¹
11,B11,< 0.001 s⁻¹
